Source: US20110104176A1 (SAMSUNG ELECTRONICS, published 2011)
One block for each molecule: values may come before it.

What was measured:
[1] = biological target: mouse c-Met/Fc fusion protein (R&D Systems) (mouse) (UniProt P16056); test: ELISA, c-Met/Fc coated at 2 ug/ml, goat anti-mouse IgG-HRP, OPD
[2] = biological target: human c-Met/Fc fusion protein (R&D Systems) (human) (UniProt P08581); test: as above
[3] = biological target: T1, human c-Met protein (immobilized on a CM5 chip) (human, UniProt P08581 25-932, limits assumed); test: SPR (Biacore), human c-Met immobilized on a CM5 chip, antibody in flow
T1 sequence (P08581 25-932 limits assumed): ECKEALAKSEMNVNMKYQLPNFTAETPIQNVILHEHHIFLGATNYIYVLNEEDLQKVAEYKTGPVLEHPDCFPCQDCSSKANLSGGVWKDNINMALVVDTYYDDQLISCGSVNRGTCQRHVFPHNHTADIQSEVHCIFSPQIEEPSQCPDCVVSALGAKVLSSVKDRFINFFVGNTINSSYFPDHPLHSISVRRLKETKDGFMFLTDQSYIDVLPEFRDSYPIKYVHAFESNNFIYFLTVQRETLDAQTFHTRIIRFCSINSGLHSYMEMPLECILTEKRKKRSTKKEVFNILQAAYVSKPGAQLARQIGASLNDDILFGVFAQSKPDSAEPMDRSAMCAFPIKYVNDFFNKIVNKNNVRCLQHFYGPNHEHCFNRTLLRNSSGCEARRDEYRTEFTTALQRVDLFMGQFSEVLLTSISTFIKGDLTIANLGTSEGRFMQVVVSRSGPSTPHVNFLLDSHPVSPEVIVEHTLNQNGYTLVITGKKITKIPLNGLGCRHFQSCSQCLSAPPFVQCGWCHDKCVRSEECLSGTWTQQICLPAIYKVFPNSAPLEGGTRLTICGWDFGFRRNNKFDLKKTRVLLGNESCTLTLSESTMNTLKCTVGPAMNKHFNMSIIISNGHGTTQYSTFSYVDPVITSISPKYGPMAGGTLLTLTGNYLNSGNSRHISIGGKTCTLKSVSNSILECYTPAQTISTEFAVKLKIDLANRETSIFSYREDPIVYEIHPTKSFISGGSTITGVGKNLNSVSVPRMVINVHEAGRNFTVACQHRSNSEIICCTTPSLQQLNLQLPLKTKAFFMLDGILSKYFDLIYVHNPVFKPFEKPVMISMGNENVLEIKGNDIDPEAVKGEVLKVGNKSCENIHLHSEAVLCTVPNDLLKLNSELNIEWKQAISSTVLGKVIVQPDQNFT
Experimental: (§1) A surface plasmon resonance (SPR) device (Biacore) was used to measure the binding affinity of the monoclonal antibody AbF46 prepared in Example 1 to human c-Met protein. The human c-Met protein was first immobilized on a CM5 chip, and the monoclonal antibody AbF46 was allowed to flow into a microfluidic chamber to obtain kₐ (on) and kb (off) values as illustrated in FIG. 2. Then, the Kd value was calculated from the kₐ and kb values. […] In addition, the Chi² value, which represents the reliability of the experiment, was 0.822 (in a Biacore analysis method, a Chi² value of 1 or less indicates high reliability of the data).

[4] = biological target: T1, human c-Met protein (immobilized on a …); test: SPR (Biacore), human c-Met immobilized on a CM5 chip, AbF46 flowed over
Experimental: as §1

mouse c-Met/Fc fusion protein (R&D Systems) (mouse), sequence (P16056 25-931 limits assumed): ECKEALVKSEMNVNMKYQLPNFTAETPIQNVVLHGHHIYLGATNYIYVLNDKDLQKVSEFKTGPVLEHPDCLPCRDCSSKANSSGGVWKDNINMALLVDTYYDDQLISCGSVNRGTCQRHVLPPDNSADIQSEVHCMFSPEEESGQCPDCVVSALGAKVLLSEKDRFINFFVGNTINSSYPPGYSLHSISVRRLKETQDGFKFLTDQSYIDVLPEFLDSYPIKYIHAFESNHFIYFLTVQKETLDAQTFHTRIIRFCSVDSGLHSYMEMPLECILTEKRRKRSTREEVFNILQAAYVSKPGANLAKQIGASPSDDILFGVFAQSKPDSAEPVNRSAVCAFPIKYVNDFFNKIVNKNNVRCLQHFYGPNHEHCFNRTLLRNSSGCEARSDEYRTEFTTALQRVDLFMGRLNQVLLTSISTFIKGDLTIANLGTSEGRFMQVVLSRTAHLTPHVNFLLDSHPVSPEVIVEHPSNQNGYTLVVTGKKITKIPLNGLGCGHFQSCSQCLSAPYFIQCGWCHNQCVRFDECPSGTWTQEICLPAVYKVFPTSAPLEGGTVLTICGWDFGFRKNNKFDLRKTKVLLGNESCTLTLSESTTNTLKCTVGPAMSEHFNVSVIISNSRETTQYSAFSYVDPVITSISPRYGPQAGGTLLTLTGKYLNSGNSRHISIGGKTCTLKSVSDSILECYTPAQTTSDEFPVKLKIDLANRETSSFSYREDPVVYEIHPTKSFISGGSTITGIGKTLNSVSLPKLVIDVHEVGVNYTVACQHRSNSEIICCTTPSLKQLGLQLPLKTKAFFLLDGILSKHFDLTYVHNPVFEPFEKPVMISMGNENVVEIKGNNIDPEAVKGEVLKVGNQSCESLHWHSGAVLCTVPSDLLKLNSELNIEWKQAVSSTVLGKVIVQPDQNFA
human c-Met/Fc fusion protein (R&D Systems) (human), sequence (P08581 25-932 limits assumed): as the sequence (P08581 25-932 limits assumed) above

- absorption at 450 nm [1]: 0.113
- absorption at 450 nm [2]: 0.373
Molecule: 5D5 (Genentech), monoclonal antibody against human c-Met

- Kd [3]: 4 nM
- koff [4]: 0.00155 s⁻¹
- kon [4]: 385000 M⁻¹ s⁻¹
B1: monoclonal antibody AbF46 (antibody, IgG1, V domains shown)
VH: EVKLVESGGGLVQPGGSLRLSCATSGFTFTDYYMSWVRQPPGKALEWLGFIRNKANGYTTEYSASVKGRFTISRDNSQSILYLQMDTLRAEDSATYYCARDNWFAYWGQGTLVTVSA
VL: DILMTQSPSSLTVSAGEKVTMSCKSSQSLLASGNQNNYLAWHQQKPGRSPKMLIIWASTRVSGVPDRFIGSGSGTDFTLTINSVQAEDLAVYYCQQSYSAPLTFGAGTKLELKR
notes: also called SAIT-MET-AbF46 (hybridoma cell line); antibody of hybridoma KCLRF-BP-00220
